# Laboratory results reported in patent US20180171024A1 (ADICET BIO, published 2018).
# B1: D10A3 TCR-like antibody (IgG) (antibody, V domains shown)
# VH: EVQLQQFGTELVKPGASVKISCKASGYTFTDYNMDWVKQSHGKSLEWIGDINPNYDTTTYNQKFKGKATLTVDKSSSTAYMELRSLTSEDTAVFYCARRNYGNYVGFDFWGQGTTLTVSS
# VL: NIVLTQTPKFLLVSAGDRVSITCKASQRVNNDVAWYQQKPGQSPKLLIYYASNRYTGVPDRFTGSGYGTDFTFTISTVQAEDLAVYFCQQDYSSPFTFGSGTKLEIKR
# notes: also called PAP D10A3
# B2: B47B6 TCR-like antibody (IgG) (antibody, V domains shown)
# VH: EVQLVESGGGLVKPGGSLKLSCAASGFVFSSYDMSWVRQAQEKRLEWVAYMSSGGGTYYPDTVKGRFTISRDNAKNTLHLQMSSLKSEDTAMYYCARHDEITNFDYWGQGTTLTVSS
# VL: DIVLTQSPATLSVSPGDSVSLSCRASQSISNSLHWYQQKSHESPRLLIKYASQSISGIPSRFSGSGSGTDFTLSINSVETEDFGMYFCQQSYSWPLTFGAGSKLELKR
# notes: also called WT1 B47B6
# B3: C106B9 TCR-like antibody (IgG) (antibody, V domains shown)
# VH: QVQLQQSGGEVMKPGASVKLSCKATGYTFTGYWIEWIKQRPGHGLEWIGEILPGSGGTNYNEKFKGKATFTAHTSSNTAYMQLSSLTTEDSAIYYCARDSNSFTYWGQGTLVTVSS
# VL: QIVLTQSPAIMSASPGEKVTITCSVSSSVDYIHWFQQKPGTSPKFWIYSTSILASGVPARFSGSGSGTSYSLTISRMEAEDAATYYCQQRSSYPPTFGSGTKLEIKR
# notes: also called MAGE-A4 C106B9
# B4: 905-2-D7 TCR-like antibody (IgG) (antibody, V domains shown)
# VH: QVQLKESGPGLVAPSQSLSITCTVSGFSLTSYGVHWVRQPPGKGLEWLGVIWAGGTTNYNSALMSRLSISRDNSKSQVFLEMNSLQTDDTAIYYCARDGHFHFDFWGQGTTLTVSS
# VL: DIQMTQSPASLSVSVGETVTITCRASDIIYSNLAWYQQKQGKSPQLLVYAATNLAAGVPSRFSGSGSGTQYSLKINSLQSEDFGTYYCQHFWGSSISFGSGTKLEIKR
# notes: also called Tyr D7
# B5: 906-11-D11 TCR-like antibody (IgG) (antibody, V domains shown)
# VH: not shown
# VL: DIQMTQSPSSLSASLGGKVTITCKASQDIHNYIAWYQHKPVKGPRLLIHYTSTLQPGTPSRFSGSGSGRDYSFSISNLEPEDIATYYCLQYDNLWTFGGGTKLEIKR
# notes: also called Tyr D11
# Assays:
# [1] = biological target: T1, HLA-A2/MAGE-A4 230-239 complex on cells (human); assay: flow cytometry, peptide-loaded T2 cells (10^-5 M)
# T1 construct: whole, on cells; also called MAGE-A4 peptide; HLA-A2+/MAGE-A4+ cells
# PAP112-A1 = biological target: T2, PAP112-A1; assay: alanine scan, flow cytometry, peptide-loaded T2 cells (10^-5 M), antibody 10 µg/ml
# T2 construct: also called PAP A1; HLA-A2/PAP A1 on T2 cells
# PAP112-A9 = biological target: T3, PAP112-A9 (Homo sapiens); assay: as above
# T3 construct: cell surface;cell surface complex; also called PAP A9; HLA-A2/PAP A9 on T2 cells
# [2] = biological target: T4, HLA-A2/MART1(26) on T2 cells (human); assay: flow cytometry, peptide-loaded T2 cells (10^-5 M)
# T4 construct: whole, on cells
# [3] = biological target: T1, HLA-A2/MAGE-A4 230-239 complex on cells; assay: flow cytometry, T2 cells loaded with 10^-4 M peptide
# [4] = biological target: T5, single-chain recombinant HLA-A2/WT1 126-134 complex (human); assay: SPR (ProteOn), IgG captured via anti-mouse IgG, scHLA-A2/WT1 as analyte
# T5 construct: also called scHLA-A2/WT1; MHC-WT1 peptide complex
# Method: (§1) Immobilization of IgG TCR-like antibody was performed on a GLM (General Layer Medium) chip (Bio-Rad Laboratories, Hercules, Calif., USA) at 25° C. in the vertical orientation and the continuous running buffer was PBST (10 mM Na-phosphate, 150 mM NaCl, and 0.005% Tween 20, pH 7.4). Five channels were activated with 50 μl of a mixture of 0.04 M N-ethyl-N′-(3-dimethylaminopropyl) carbodiimide (EDC) and 0.01 M sulfo-N-hydroxysuccinimide (Sulfo-NHS) at a flow rate of 30 μl/min. The anti-mouse or human IgG/NeutrAvidin was diluted in 10 mM sodium acetate buffer pH 4.5 to a final concentration of 25 μg/ml and 150 μl were injected followed by an injection of 150 μl of 1 M ethanolamine-HCl pH 8.5. The IgG TCRL antibody/purified biotinylated single-chain recombinant HLA-A2/Tyrosinase/WT1/MAGE-A4/MAGE-A9/PAP complex ligand was diluted in PBST to 5-10 μg/ml and 90 μl were injected in the vertical orientation with a flow rate of 30 μl/min. The sixth channel remained empty to serve as a reference. […] Running buffer was injected simultaneously in the sixth channel for double referencing to correct for loss of the captured antibodies from the chip sensor surface during the experiment. All binding sensorgrams were collected, processed and analyzed using the integrated ProteOn Manager (Bio-Rad Laboratories, Hercules, USA) software. […]
# [5] = biological target: T5, single-chain recombinant HLA-A2/WT1 …; assay: SPR, B47B6 IgG captured via anti-mouse IgG, analyte scHLA-A2/WT1
# Method: Purified IgGs were immobilized indirectly to the SPR sensor chip with anti-mouse. Analyte was purified recombinant single-chain HLA-A2/WT1 complexes generated by in vitro refolding of E. coli expressed scHLA-A2 complexes.
# Immobilization of IgG TCR-like antibody was performed on a GLM (General Layer Medium) chip (Bio-Rad Laboratories, Hercules, Calif., USA) at 25° C. in the vertical orientation and the continuous running buffer was PBST (10 mM Na-phosphate, 150 mM NaCl, and 0.005% Tween 20, pH 7.4). Five channels were activated with 50 μl of a mixture of 0.04 M N-ethyl-N′-(3-dimethylaminopropyl) carbodiimide (EDC) and 0.01 M sulfo-N-hydroxysuccinimide (Sulfo-NHS) at a flow rate of 30 μl/min. The anti-mouse or human IgG/NeutrAvidin was diluted in 10 mM sodium acetate buffer pH 4.5 to a final concentration of 25 μg/ml and 150 μl were injected followed by an injection of 150 μl of 1 M ethanolamine-HCl pH 8.5. The IgG TCRL antibody/purified biotinylated single-chain recombinant HLA-A2/Tyrosinase/WT1/MAGE-A4/MAGE-A9/PAP complex ligand was diluted in PBST to 5-10 μg/ml and 90 μl were injected in the vertical orientation with a flow rate of 30 μl/min. The sixth channel remained empty to serve as a reference. […] All binding sensorgrams were collected, processed and analyzed using the integrated ProteOn Manager (Bio-Rad Laboratories, Hercules, USA) software. […]
# [6] = biological target: T6, HLA-A2/MAGE-A4-A2 on T2 cells (human); assay: flow cytometry (MFI), T2 cells loaded with Ala-mutated peptide
# T6 construct: whole, on cells
# [7] = biological target: T7, HLA-A2/MAGE-A4-A4 on T2 cells (human); assay: as above
# T7 construct: whole, on cells
# [8] = biological target: T8, HLA-A2/MAGE-A4-A5 on T2 cells (human); assay: as above
# T8 construct: whole, on cells
# [9] = biological target: T9, HLA-A2/MAGE-A4-A6 on T2 cells (human); assay: as above
# T9 construct: whole, on cells
# [10] = biological target: T10, HLA-A2/MAGE-A4-A7 on T2 cells (human); assay: as above
# T10 construct: whole, on cells
# MAGE-A4-A1 = biological target: T11, MAGE-A4-A1; assay: alanine scan, flow cytometry, peptide-loaded T2 cells (10^-5 M), antibody 10 µg/ml
# T11 construct: also called HLA-A2/MAGE-A4-A1 on T2 cells
# Method: (§2) FIG. 55: Epitope specificity determination by Alanine scanning mutagenesis. The mutant MAGE-A4 peptides with alanine substitutions at positions 1, 2, 3, 4, 5, 6, 7, 8 and 9 were synthesized. […] The native and mutant MAGE-A4 peptides were loaded onto T2 cells APCs at a concentration of 10⁻⁵ M for 12 hrs at 37° C. […] MFI values for cells loaded with mutant and wild type peptides were compared. The relative effect of each Ala substitution was expressed as percentage of the binding to native wild-type peptide.
# MAGE-A4-A3 = biological target: T12, MAGE-A4-A3; assay: as above
# T12 construct: also called HLA-A2/MAGE-A4-A3 on T2 cells
# Method: as §2
# MAGE-A4-A8 = biological target: T13, MAGE-A4-A8; assay: as above
# T13 construct: also called HLA-A2/MAGE-A4-A8 on T2 cells
# Method: as §2
# MAGE-A4-A9 = biological target: T14, MAGE-A4-A9; assay: as above
# T14 construct: also called HLA-A2/MAGE-A4-A9 on T2 cells
# Method: as §2
# MAGE-A4-A10 = biological target: T15, MAGE-A4-A10; assay: as above
# T15 construct: also called HLA-A2/MAGE-A4-A10 on T2 cells
# Method: as §2
# [11] = biological target: T16, single-chain recombinant HLA-A2/MAGE-A4 230-239 complex (human); assay: SPR (ProteOn); text: IgG captured via anti-mouse IgG, scHLA-A2/MAGE-A4 as analyte (FIG. 54 legend: complex on NeutrAvidin, Fab as analyte)
# T16 construct: also called scHLA-A2/MAGE-A4
# [12] = biological target: T4, HLA-A2/MART1(26) on T2 cells; assay: flow cytometry, T2 cells loaded with MART1 peptide
# [13] = biological target: T1, HLA-A2/MAGE-A4 230-239 complex on cells; assay: flow cytometry, peptide-loaded T2 cells (10^-5 M); remark: listed apart in the source
# [14] = biological target: T17, single-chain recombinant HLA-A2/Tyrosinase369-377 complex (human); assay: SPR, IgG captured by anti-mouse IgG, analyte scHLA-A2/Tyrosinase (EM3-TyrD)
# T17 construct: also called scHLA-A2/Tyrosinase; HLA-A2/TyrD369-377
# Method: as §1
# [15] = biological target: T17, single-chain recombinant …; assay: SPR (ProteOn), IgG captured via anti-mouse IgG, scHLA-A2/Tyrosinase as analyte; apparent affinity
# Method: as §1
binder,measurement,setting,value
B1,binding result,[1],no binding (tested: 10 µg/ml)
same,% of PAP112 binding,PAP112-A1,83%
same,% of PAP112 binding,PAP112-A9,1%
B2,binding result,[2],no binding (tested: 10 µg/ml)
same,binding result,[3],no binding
same,Kd,[4],4.4 nM
same,Kd,[5],4.37 nM
B3,percent decrease in binding vs wild-type peptide,[6],33%
same,percent decrease in binding vs wild-type peptide,[7],90%
same,percent decrease in binding vs wild-type peptide,[8],90%
same,percent decrease in binding vs wild-type peptide,[9],90%
same,percent decrease in binding vs wild-type peptide,[10],90%
same,% of MAGE-A4 binding,MAGE-A4-A1,106%
same,% of MAGE-A4 binding,MAGE-A4-A3,1%
same,% of MAGE-A4 binding,MAGE-A4-A8,168%
same,% of MAGE-A4 binding,MAGE-A4-A9,79%
same,% of MAGE-A4 binding,MAGE-A4-A10,4%
same,Kd,[11],8.8 nM
B4,binding result,[12],no binding (tested: 10 µg/ml)
same,binding result,[13],no binding (tested: 10 µg/ml)
B5,binding result,[12],no binding (tested: 10 µg/ml)
same,binding result,[13],no binding (tested: 10 µg/ml)
same,Kd,[14],4.14 nM
same,Kd,[15],4.1 nM
